Laboratory results as given in patent publication US9193770.

Biological target: TLR5 of the luciferase reporter assay
Experiment: cell-based or functional assay

## native H7 flagellin purified from E. coli O157:H7 (ligand)
  luciferase reporter assay, TLR5 activity: 0.1 ng/mL
